# Positions count from the first letter of the chain named.
# B1: mAb715 (antibody, V domains shown)
# VH: EVMLVESGGGLLKPGGSLKLSCAASGFTFSSYAMSWVRQTPEKRLEWVATISGGGRDTYYPDSVKGRFTISRDNAKNTLYLQMTSLRSEDTAFYYCAGQGGTYLFASWGQGTLVTVSA
# VL: DIVMTQSHKFMSTSVGDSVTITCKASQDVNTAVAWYQQKPGQPPKVLIYWASTRHTGVPDRFTGSGSGTDYTLTISSVQAEDLALYYCQQHYTTPYTFGGGTKLEIK
# notes: murine hybridoma anti-PD-1 mAb
# B2: mAb709 (antibody, V domains shown)
# VH: B1 VH with M3K, L12V, S31F, A33T, Q82H, T84S, F93L, T102N, S107Y
# VL: B1 VL with A32V, P43S, P44L, Y49S, D60A, K103Q
# notes: as for B1
# B3: mAb703 (antibody, V domains shown)
# VH: DVQLQESGPGLVKPSQSLSLTCSVTGYSITTGYYWNWIRQFPGNKLEWMGYMSYDGNNNYNPSLKNRISITRDTSKNQFLLRLNSVTTEDTATYFCARDRGTTILGGTMDYWGQGTSVTVS
# VL: SIVMTQTPKFLFVSAGDRVTIACKASQSVSNDVAWYQQKPGQSPKLLIYYAFYRYTGVPDRFTGSGYGTDFTFTISTVQAEDLAVYFCQQDYSSPWTFGGGTKLEIK
# notes: as for B1
# B4: mAb719 (antibody, V domains shown)
# VH: EVKLVESGGGLVKPGGSLKLSCTASGFSFSSHLMSWVRQTPEKRLEWVAAISGGGADTYYPDSVKGRFTISRDNAKNTLYLQMRSLRSEDTALYYCTRQILAFDSWGQGTTLTVSS
# VL: DIQMNQSPSSLSVSLGDTITITCHASQNIYVWLNWYQQKPGNIPKLLIYKASNLHTGVPSRFSGGGSGTGFTLTISSLQPEDIATYYCQQGQSYPWTFGGGTKLEIK
# notes: as for B1
# B5: mAb713 (antibody, V domains shown)
# VH: EVKLVESGGGLVKPGGSLELSCAASGFTSSDYGMHWVRQAPEKGLEWVAYISSGSYTIYYADTVKGRFTISRDNAKNTLFLQMTSLRSEDTAMYYCAKRGGSSHVNVMDYWGQGTSVTVSS
# VL: DIQMTQSSSYLSVSLGGRVTITCKASDHINNWLAWYQQKPGNAPRLLISGATSLETGVPSRFSGSGSGKDYTLSITSLQTEDVATYYCQQYWSPPYTFGGGTKLEIK
# notes: as for B1
# B6: mAb714 (antibody, V domains shown)
# VH: EVHLQQSGPELVKPGASVKIFCKASGYTFTDNNVEWVKQSHGKSLEWIGDINPNNGDTLYSQYFKDKATLTVDKSSTTAYMELRSLTSEDTGLYYCARGKSDQFDYWGQGTTLTVSS
# VL: DIQMTQSPASQSASLGESVTITCLASQTIGTWLAWYQQKPGKSPQLLIYAATSLADGVPSRFSGSGSGTKFSFKISSLQGEDFVSYYCQQLYSSPWTFGGGTKLEIK
# notes: as for B1
# B7: mAb701 (antibody, V domains shown)
# VH: EVLLVESGGGLVKPGGSLKLSCAASGFTFSSYMMSWIRQTPERRLEWVASMSGGGRDTYYPDSVKGRFTISRDNAKNTLYLQMSSLRSEDTALYYCARRGTYAMDYWGQGTSVTVSS
# VL: B6 VL with A34T, G80A, S94T
# notes: as for B1
# B8: mAb718 (antibody, V domains shown)
# VH: QVQLQQSGAELVRPGASVTLSCKASGYTFTDYEMHWAKQTPVHGLEWIGVIEPESGGTVYNQKFKGKAKLTADKSSRTAYMELRSLTSEDSAVYYCTREGFNSDHYFDYWGQGTTLTVSS
# VL: DVLMTQTPLSLPVSLGDQASISCRSSQNIVHSNGNTYLEWYLQKPGQSPKLLIYKVFNRFSGVPDRFSGSGSGTDFTLKISRVEAEDLGVYYCFQGSHVPYTFGGGTKLEIK
# notes: as for B1
# Biological target: T1, human PD-1 ECD/Fc fusion protein (human)
# T1 construct: also called huPD-1/Fc; HuPD-1 ECD/Fc
# Assay: RBA ELISA on huPD-1/Fc; competitor biotin-huPD-L2/Fc
# Method: (§1) Supernatants displaying PD-1 specific activity were tested for the ability to block PD-1 binding to its ligands PD-L1 and PD-L2 using immobilized human PD-1 ECD/Fc as a target and PD-L1/Fc and PD-L2/Fc fusion proteins, prepared in the same manner as the PD-1 ECD/Fc binding proteins described in Example 1.3 above. To determine the relative potency of the antibody-containing supernatants, their ability to inhibit the binding of a human PD-1 ligand (PD-L1 or PD-L2) to human PD-1 protein was evaluated. ELISA plates were coated with 100 μl of 50 ng/m of huPD-1/Fc (i.e., the extracellular domain of PD-1 grafted onto the N-terminus of a human Fc region, recovered as a homodimer) in PBS and incubated overnight at 4° C. Plates were washed four times in washing buffer (PBS containing 0.05% Tween 20) and blocked for 1 hour at 37° C. with 200 μl per well of blocking buffer (1% BSA in PBS containing 0.05% Tween 20). After blocking buffer was removed, hybridoma supernatant (50 μl) was added to the wells, mixed with either 50 μl biotinylated human PD-L1/Fc ([…] final concentration) in blocking buffer or 50 μl biotinylated human PD-L2/Fc (final concentration 50 μg/ml) in blocking buffer, then incubated at 37° C. for 1 hour. Signal was developed by adding streptavidin-HRP (Sigma, Cat. No. S2468) (100 μl/well of streptavidin-HRP at 1:5000 dilution) and incubating for 40 minutes at 37° C. and washed four times in washing buffer. 100 μl of TMB solution were added per well. Following color development, the reaction was stopped with 1 Normal HCl and absorbance at 450 nm was measured. […]
Binder,IC50 [nM],TOP inhibition (%)
B1,2.17,88
B2,0.52,93.7
B3,2.02,95.7
B4,1.85,95.2
B5,2.52,93.5
B6,2.24,93.1
B7,2.67,94.1
B8,1.91,96.6

# Biological target: T1, human PD-1 ECD/Fc fusion protein
# Assay: SPR Biacore, mAb captured, huPD-1/Fc analyte
# Method: The binding kinetics of purified antibodies were measured by surface plasmon resonance using a Biacore […] instrument (GE Healthcare) using standard procedures. Briefly, goat anti-mouse IgG Fc polyclonal antibody (Genway) was directly immobilized across a biosensor chip, and antibodies samples were injected over reaction matrices at a flow rate of 5 μl/min. The association and dissociation rate constants, kₒₙ(M⁻¹ s⁻¹) and koff (s⁻¹) respectively, were determined with a continuous flow rate of 30 μl/min. Rate constants were derived by making kinetic binding measurements at five different concentrations of human PD-1/Fc protein. The equilibrium dissociation constant KD (M) of the reaction between antibodies and related target proteins was then calculated from the kinetic rate constants using the formula KD=koff/kₒₙ.
Binder,Kd [nM],koff [s⁻¹],kon [M⁻¹ s⁻¹]
B1,1.5,0.000237,158000
B2,0.939,0.000104,111000
B3,2.45,0.00085,347000
B4,3,0.000215,71500
B5,1.96,0.000285,145000
B6,2.11,0.00021,99400
B7,6.81,0.000512,75200
B8,4.84,0.000283,58400

# Biological target: T1, human PD-1 ECD/Fc fusion protein
# Assay: RBA ELISA on huPD-1/Fc; competitor biotin-huPD-L1/Fc
# Method: as §1
Binder,IC50 [nM],TOP inhibition (%)
B1,2.91,86.9
B2,0.8,91.6
B3,3,96
B4,3.39,96.5
B5,2.95,94.4
B6,2.95,92.3
B7,5.32,87.1
B8,4.19,96.6

# Biological target: T2, cynomolgus PD-1 expressed on CHO-K1 cells (cynomolgus monkey, UniProt B0LAJ3 25-288)
# T2 construct: also called CHO-K1/cynoPD-1; CHO-K1-cynoPD-1
# Assay: FACS, CHO-K1/cynoPD-1 cells
# Method: (§2) CHO-K1/huPD-1 or CHO-K1/cynoPD-1 cells, described above, were charged at 2×10⁴ cell per well into 96-well assay round-bottomed assay plates (Cat. No. 3799; Corning) and stained with purified anti-PD-1 antibodies. PD-1 antibodies were detected with AlexaFluor® Donkey anti-Mouse IgG (H+L) Highly Cross-Adsorbed Secondary Antibody, (Cat. No. A21202; Invitrogen), and cell fluorescence was monitored using a flow cytometer. The data were processed by GraphPad software, and EC50 values were calculated.
row,Binder,EC50 [nM]
1,B1,0.9
2,B2,0.2
3,B3,0.7
4,B4,2.1
5,B5,0.9
6,B6,0.8
7,B7,3.8
8,B8,4.2

# Biological target: T1, human PD-1 ECD/Fc fusion protein
# Assay: ELISA, coated huPD-1/Fc
# Method: ELISA plates were incubated overnight at 4° C. with 50 μl of the synthetic human PD-1 ECD/Fc fusion protein targets described above diluted in PBS buffer, pH 7.4, at 1 μg/ml. Plates were washed four times in washing buffer (PBS containing 0.05% Tween 20), and blocked for 1 hour at 37° C. with 200 μl per well blocking buffer (1% BSA in PBS containing 0.05% Tween 20). After blocking buffer was removed, hybridoma supernatant (or later diluted purified mAbs) were added to the wells at 100 μl per well and incubated at 37° C. for 1 hour. The wells were washed four times with washing buffer, and anti-mouse HRP (Sigma) for mouse anti-human PD-1 antibody characterization were diluted 1:5000 and added to the wells at 100 μl per well. The plates were incubated for 1 hour at 37° C. and washed four times in washing buffer. 100 μl of tetramethylbenzidine (TMB) chromogenic solution were added per well. Following color development, the reaction was stopped with 1 Normal HCl and absorbance at 450 nm was measured on a SpectraMax M5e plate reader (Molecular Devices; San Jose, Calif., US).
# A binding ELISA was performed in the same way as described in Example 1.3 above. Each purified antibody was 10-fold serially diluted and duplicated. After blocking of the 96-well assay plate with wells containing immobilized PD-1 ECD/Fc fusion protein targets, the purified antibody samples with diluted concentrations were added to wells of assay plates. The HRP-linked anti-mouse IgG antibody (A0168, Sigma) and TMB reagent were used to detect and develop the ELISA signal, which were read on a SpectraMax® M5e plate reader at wavelength of 450 nm. Curves were fitted using GraphPad software, and EC50 were calculated. Similarly, a receptor blocking assay (RBA) was also performed as described in Example 1.5 with titrated, purified antibodies, and top blocking percentages and IC50 values were determined.
row,Binder,EC50 [nM]
1,B1,0.04
2,B2,0.01
3,B3,0.05
4,B4,0.02
5,B5,0.08
6,B6,0.05
7,B7,0.1
8,B8,0.02

# Biological target: T3, human PD-1 expressed on cells (human, UniProt Q15116 25-288)
# T3 construct: whole, on cells; also called CHO-K1/huPD-1; CHO-K1-hPD-1 cells
# Assay: FACS, CHO-K1/huPD-1 cells
# Method: as §2
row,Binder,EC50 [nM]
1,B1,1.1
2,B2,0.2
3,B3,0.5
4,B4,1.7
5,B5,1.1
6,B6,1.6
7,B7,3
8,B8,3.2
